Consider 2 molecules from publication PMC6887548 (Nature, 2019).

In one assay the target is T1, Mcm2 (yeast, UniProt P29469).
T1 sequence: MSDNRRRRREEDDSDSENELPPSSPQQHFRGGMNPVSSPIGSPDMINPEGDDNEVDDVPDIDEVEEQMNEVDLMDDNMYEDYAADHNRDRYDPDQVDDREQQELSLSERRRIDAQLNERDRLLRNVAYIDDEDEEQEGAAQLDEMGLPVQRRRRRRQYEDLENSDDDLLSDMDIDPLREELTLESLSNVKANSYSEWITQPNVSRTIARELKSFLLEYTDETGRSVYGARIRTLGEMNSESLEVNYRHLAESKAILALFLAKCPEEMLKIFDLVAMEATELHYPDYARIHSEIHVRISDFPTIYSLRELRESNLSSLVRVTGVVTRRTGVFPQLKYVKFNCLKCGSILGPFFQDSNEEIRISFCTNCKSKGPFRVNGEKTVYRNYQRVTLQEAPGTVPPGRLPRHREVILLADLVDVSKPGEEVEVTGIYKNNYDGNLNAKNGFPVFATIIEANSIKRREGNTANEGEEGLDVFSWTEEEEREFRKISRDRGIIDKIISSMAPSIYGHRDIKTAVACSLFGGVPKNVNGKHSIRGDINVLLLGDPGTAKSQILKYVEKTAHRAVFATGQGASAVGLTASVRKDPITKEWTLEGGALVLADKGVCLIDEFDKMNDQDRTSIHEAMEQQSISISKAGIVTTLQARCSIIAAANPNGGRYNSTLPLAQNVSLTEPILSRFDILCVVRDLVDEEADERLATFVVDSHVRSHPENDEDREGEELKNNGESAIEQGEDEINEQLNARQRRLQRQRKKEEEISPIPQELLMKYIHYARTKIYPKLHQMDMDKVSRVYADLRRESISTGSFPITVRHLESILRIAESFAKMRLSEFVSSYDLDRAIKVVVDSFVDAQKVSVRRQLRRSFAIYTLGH
Description: cryo-EM structure.

Another assay addresses T2, Mcm5 (yeast, UniProt P29496).
T2 sequence: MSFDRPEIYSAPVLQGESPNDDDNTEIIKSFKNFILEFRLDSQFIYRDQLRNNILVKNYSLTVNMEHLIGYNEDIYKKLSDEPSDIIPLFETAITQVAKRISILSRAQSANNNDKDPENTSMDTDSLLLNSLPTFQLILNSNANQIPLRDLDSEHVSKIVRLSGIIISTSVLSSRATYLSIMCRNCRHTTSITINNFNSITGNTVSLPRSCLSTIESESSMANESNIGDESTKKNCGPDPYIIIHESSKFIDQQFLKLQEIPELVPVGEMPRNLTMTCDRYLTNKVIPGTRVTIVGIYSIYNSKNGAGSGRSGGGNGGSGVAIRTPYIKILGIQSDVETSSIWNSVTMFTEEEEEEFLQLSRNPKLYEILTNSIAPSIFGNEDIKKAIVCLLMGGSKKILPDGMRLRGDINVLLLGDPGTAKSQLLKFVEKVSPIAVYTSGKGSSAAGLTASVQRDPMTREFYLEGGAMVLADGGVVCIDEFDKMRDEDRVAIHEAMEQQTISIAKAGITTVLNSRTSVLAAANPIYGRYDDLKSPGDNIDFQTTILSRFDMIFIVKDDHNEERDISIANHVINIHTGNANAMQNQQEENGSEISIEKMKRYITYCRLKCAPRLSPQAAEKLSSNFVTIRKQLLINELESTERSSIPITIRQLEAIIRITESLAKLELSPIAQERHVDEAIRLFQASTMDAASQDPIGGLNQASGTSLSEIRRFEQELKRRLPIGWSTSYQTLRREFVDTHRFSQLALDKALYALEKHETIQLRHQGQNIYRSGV
Description: cryo-EM structure.

Assay [1] concerns the target origin recognition complex (ORC) (yeast, UniProt P54784;P32833;P54790;P54791;P50874;P38826). Put plainly: cryo-EM 2D class averages.

B1: Orc6 (natural protein)
chain: MSMQQVQHCVAEVLRLDPQEKPDWSSGYLKKLTNATSILYNTSLNKVMLKQDEEVARCHICAYIASQKMNEKHMPDLCYYIDSIPLEPKKAKHLMNLFRQSLSNSSPMKQFAWTPSPKKNKRSPVKNGGRFTSSDPKELRNQLFGTPTKVRKSQNNDSFVIPELPPMQTNESPSITRRKLAFEEDEDEDEEEPGNDGLSLKSHSNKSITGTRNVDSDEYENHESDPTSEEEPLGVQESRSGRTKQNKAVGKPQSELKTAKALRKRGRIPNSLLVKKYCKMTTEEIIRLCNDFELPREVAYKIVDEYNINASRLVCPWQLVCGLVLNCTFIVFNERRRKDPRIDHFIVSKMCSLMLTSKVDDVIECVKLVKELIIGEKWFRDLQIRYDDFDGIRYDEIIFRKLGSMLQTTNILVTDDQYNIWKKRIEMDLALTEPL
B1: the binding result in the assay with Mcm2 and in the assay with Mcm5 was “binds” each time.

B2: Cdc6 (natural protein)
chain: MSAIPITPTKRIRRNLFDDAPATPPRPLKRKKLQFTDVTPESSPEKLQFGSQSIFLRTKALLQKSSELVNLNSSDGALPARTAEYEQVMNFLAKAISEHRSDSLYITGPPGTGKTAQLDMIIRQKFQSLPLSLSTPRSKDVLRHTNPNLQNLSWFELPDGRLESVAVTSINCISLGEPSSIFQKIFDSFQDLNGPTLQIKNMQHLQKFLEPYHKKTTFVVVLDEMDRLLHANTSETQSVRTILELFLLAKLPTVSFVLIGMANSLDMKDRFLSRLNLDRGLLPQTIVFQPYTAEQMYEIVIQKMSSLPTIIFQPMAIKFAAKKCAGNTGDLRKLFDVLRGSIEIYELEKRFLLSPTRGSLNSAQVPLTPTTSPVKKSYPEPQGKIGLNYIAKVFSKFVNNNSTRTRIAKLNIQQKLILCTIIQSLKLNSDATIDESFDHYIKAITKTDTLAPLQRNEFLEICTILETCGLVSIKKTKCKGKTKRFVDKIDVDLDMREFYDEMTKISILKPFLH
As for B2, the binding result in assay [1] is listed as “binds”.
